Patent US20150183871A1 (AbbVie / Abbott, published 2015)

T1: recombinant purified human RGM A (human, UniProt Q96B86 48-424, limits assumed)
T1 construct: Bought recombinant protein (R&D Systems); also called hRGM A; hRGMA
T1 sequence: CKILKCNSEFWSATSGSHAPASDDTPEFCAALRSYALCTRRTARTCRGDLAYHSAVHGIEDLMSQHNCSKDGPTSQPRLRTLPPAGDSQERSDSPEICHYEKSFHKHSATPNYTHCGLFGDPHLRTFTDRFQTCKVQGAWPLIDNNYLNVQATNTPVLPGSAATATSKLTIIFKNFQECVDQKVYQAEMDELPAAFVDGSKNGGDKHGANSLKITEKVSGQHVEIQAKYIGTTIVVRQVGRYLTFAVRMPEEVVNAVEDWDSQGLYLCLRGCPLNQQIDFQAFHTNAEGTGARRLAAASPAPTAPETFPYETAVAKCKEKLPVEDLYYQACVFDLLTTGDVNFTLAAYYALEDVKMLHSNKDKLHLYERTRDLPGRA


Key:
[1] = molecular target: T1, recombinant purified human RGM A; test: direct ELISA, plate coated with hRGM A at 2 µg/ml, biotinylated antibody in 1:5 dilution steps, streptavidin-HRP, OD 450 nm
Experimental: (i) Direct binding ELISA plates were coated with hRGM A (R&D) at a concentration of 2 μg/ml in Carbonate buffer. The wells were then blocked with 2% Blocking solution (Bio-Rad) for 1 hour at room temperature. Biotinylated antibodies were serially diluted with a 1:5 dilution factor in 0.1% BSNPBS down the plate and incubated for 1 hour at room temperature. The detection reagent was a 1:10,000 dilution of streptavidin-HRP in 0.1% BSNPBS. Detection was done with a TMB reagent, which was stopped with 2N H₂SO₄ and OD was read at 450 nm.
FAGS was carried out as described in section (ii).

[2] = molecular target: T1, recombinant purified human RGM A; test: SPR (Biacore 3000), antibody captured by anti-human IgG Fc, hRGMA in solution, 25 °C
Experimental: The BIACORE assay (Biacore, Inc, Piscataway, N.J.) determines the affinity of antibodies with kinetic measurements of on-, off-rate constants. Binding of antibodies to recombinant purified human RGMA was determined by surface plasmon resonance-based measurements with a Biacore® 3000 instrument (Biacore® AB, Uppsala, Sweden) using running HBS-EP (10 mM HEPES [pH 7.4], 150 mM NaCl, 3 mM EDTA, and 0.005% surfactant P20) at 25° C. All chemicals were obtained from Biacore® AB (Uppsala, Sweden). Approximately 5000 RU of goat anti-human IgG, (Fey), fragment specific polyclonal antibody (Pierce Biotechnology Inc, Rockford, Ill.) diluted in 10 mM sodium acetate (pH 4.5) was directly immobilized across a CM5 research grade biosensor chip using a standard amine coupling kit according to manufacturers instructions and procedures at 25 μg/ml. Unreacted moieties on the biosensor surface were blocked with ethanolamine. Modified carboxymethyl dextran surface in flowcell 2 and 4 was used as a reaction surface. Unmodified carboxymethyl dextran without goat anti-human IgG in flow cell 1 and 3 was used as the reference surface. Purified antibodies were diluted in HEPES-buffered saline for capture across goat anti-humanIgG specific reaction surfaces. Human antibodies to be captured as a ligand (25 μg/ml) were injected over reaction matrices at a flow rate of 5 μl/min. The association and dissociation rate constants, kₒₙ (unit M⁻¹s⁻¹) and koff (unit s⁻¹) were determined under a continuous flow rate of 25 μl/min. Rate constants were derived by making kinetic binding measurements at […] different antigen concentrations ranging from 0.39-50 nM. For kinetic analysis, rate equations derived from the 1:1 Langmuir binding model were fitted simultaneously to association and dissociation phases of all eight injections (using global fit analysis) with the use of Biaevaluation 4.0.1 software. The equilibrium dissociation constant (unit M) of the reaction between humanized antibodies and recombinant purified human RGMA was then calculated from the kinetic rate constants by the following formula: KD=koff/kₒₙ.

[3] = molecular target: T1, recombinant purified human RGM A; test: competition ELISA on coated hRGMA; competitor biotinylated chimeric 5F9
Experimental: ELISA plates (Costar 3369) were coated overnight at 4° c. with 50 μl/well of 0.25 μg/ml hRGMA in 0.2 M sodium carbonate-bicarbonate buffer, pH 9.4, washed with Wash Buffer (PBS containing 0.1% Tween 20), and blocked for 1 hr at room temperature with 200 μl/well of 2% nonfat dry milk in PBS. After washing with Wash Buffer, a mixture of a biotinylated chimeric 5F9 (0.1 IJg/ml final concentration) and unlabelled competitor test antibody starting at 50 IJg/ml final concentration and serially diluted 5-fold) in 50 μl/well of ELISA buffer was added in duplicate. After incubating the plates for 1 hr at room temperature, and washing with Wash Buffer, bound antibodies were detected using 100 μl/well of 1:10,000 dilution of HRP-conjugated streptavidin (Fitzgerald) in ELISA buffer. After incubating for 1 hr at room temperature, and washing with Wash Buffer, color development was performed by adding 100 μl/well of TMB Buffer (Zymed). After incubating for 15 min at room temperature, color development was stopped by adding 50 μl/well of 1 N hydrochloric acid. Absorbance was read at 490 nm.

EC50 (read off the curve) [1] [µg/mL] | Kd [2] [nM] | koff [2] [s⁻¹] | kon [2] [M⁻¹ s⁻¹] | IC50 [3] [µg/mL] | Binder
~0.08 | – | – | – | – | rat anti-human RGM A monoclonal antibody 5F9 (antibody, V domains shown, Rat hybridoma antibody; also called ML69-5F9; MAB 5F9) VH: EVQLVESGGGLVQPGSSLKLSCVASGFTFSNYGMNWIRQAPKKGLEWIGMIYYDSSEKHYADSVKGRFTISRDNSKNTLYLEMNSLRSEDTAIYYCAKGTTPDYWGQGVMVTVSS VL: DVVLTQTPVSLSVTLGDQASMSCRSSQSLEYSDGYTFLEWFLQKPGQSPQLLIYEVSNRFSGVPDRFIGSGSGTDFTLKISRVEPEDLGVYYCFQATHDPLTFGSGTKLEIKR
– | 3.09 | 0.00236 | 765000 | – | chimeric 5F9 (antibody, V domains shown, also called chimeric human-rat 5F9; biotinylated chimeric 5F9) VH: EVQLVESGGGLVQPGSSLKLSCVASGFTFSNYGMNWIRQAPKKGLEWIGMIYYDSSEKHYADSVKGRFTISRDNSKNTLYLEMNSLRSEDTAIYYCAKGTTPDYWGQGVMVTVSS VL: DVVLTQTPVSLSVTLGDQASMSCRSSQSLEYSDGYTFLEWFLQKPGQSPQLLIYEVSNRFSGVPDRFIGSGSGTDFTLKISRVEPEDLGVYYCFQATHDPLTFGSGTKLEIKR
– | 4.37 | 0.00221 | 507000 | 0.55 | humanized antibody h5F9.23 (antibody, V domains shown) VH: EVQLVESGGGLVQPGGSLRLSCAASGFTFSNYGMNWIRQAPGKGLEWIGMIYYDSSEKHYADSVKGRFTISRDNSKNTLYLQMNSLRAEDTAVYYCAKGTTPDYWGQGTMVTVSS VL: DVVLTQSPLSLPVTLGQPASISCRSSQSLEYSDGYTFLEWFQQRPGQSPRLLIYEVSNRFSGVPDRFSGSGSGTDFTLKISRVEAEDVGVYYCFQATHDPLTFGQGTKLEIKR
– | 5.78 | 0.00329 | 570000 | 0.66 | humanized antibody h5F9.25 (antibody, V domains shown) VH: EVQLVESGGGLVQPGGSLRLSCAASGFTFSNYGMNWIRQAPGKGLEWIGMIYYDSSEKHYADSVKGRFTISRDNSKNTLYLQMNSLRAEDTAVYYCAKGTTPDYWGQGTMVTVSS VL: DVVLTQSPLSLPVTLGQPASISCRSSQSLEYSDGYTFLEWFLQKPGQSPQLLIYEVSNRFSGVPDRFSGSGSGTDFTLKISRVEAEDVGVYYCFQATHDPLTFGQGTKLEIKR
– | – | – | – | 1.32 | humanized antibody h5F9.24 (antibody, V domains shown) VH: EVQLVESGGGLVQPGGSLRLSCAASGFTFSNYGMNWIRQAPGKGLEWIGMIYYDSSEKHYADSVKGRFTISRDNSKNTLYLQMNSLRAEDTAVYYCAKGTTPDYWGQGTMVTVSS VL: DVVLTQSPLSLPVTLGQPASISCRSSQSLEYSDGYTFLEWFQQRPGQSPRRLIYEVSNRFSGVPDRFSGSGSGTDFTLKISRVEAEDVGVYYCFQATHDPLTFGQGTKLEIKR
– | 7.59 | 0.00269 | 355000 | 0.6 | humanized antibody h5F9.21 (antibody, V domains shown) VH: EVQLVESGGGVVQPGRSLRLSCAASGFTFSNYGMNWIRQAPGKGLEWIGMIYYDSSEKHYADSVKGRFTISRDNSKNTLYLQMNSLRAEDTAVYYCAKGTTPDYWGQGTMVTVSS VL: DVVLTQSPLSLPVTLGQPASISCRSSQSLEYSDGYTFLEWFLQKPGQSPQLLIYEVSNRFSGVPDRFSGSGSGTDFTLKISRVEAEDVGVYYCFQATHDPLTFGQGTKLEIKR
